Data from patent publication US6465423.

Columns and labels:
[1] = target: endogenous BP-53 of human serum (human) (UniProt P17936); assay: DEAE-Sephadex peaks A and B mixed for 60 min at 22° C, Superose-12, BP-53 RIA
[2] = target: IGF affinity column loaded with BP-53 (BP-53 non-covalently bound to agarose-IGF) (human) (UniProt P17936); assay: affinity chromatography of DEAE-Sephadex ALS fractions on the IGF column loaded with BP-53
[3] = target: acid-labile sub-unit (ALS) of insulin like growth factor binding protein complex (human) (UniProt P35858); assay: competition of acidified-neutralized serum with cross-linked BP-53-IGF-I tracer in the routine ALS assay
Sequence of acid-labile sub-unit (ALS) of insulin like growth factor binding protein complex (human) (P35858 28-605, one chain of several): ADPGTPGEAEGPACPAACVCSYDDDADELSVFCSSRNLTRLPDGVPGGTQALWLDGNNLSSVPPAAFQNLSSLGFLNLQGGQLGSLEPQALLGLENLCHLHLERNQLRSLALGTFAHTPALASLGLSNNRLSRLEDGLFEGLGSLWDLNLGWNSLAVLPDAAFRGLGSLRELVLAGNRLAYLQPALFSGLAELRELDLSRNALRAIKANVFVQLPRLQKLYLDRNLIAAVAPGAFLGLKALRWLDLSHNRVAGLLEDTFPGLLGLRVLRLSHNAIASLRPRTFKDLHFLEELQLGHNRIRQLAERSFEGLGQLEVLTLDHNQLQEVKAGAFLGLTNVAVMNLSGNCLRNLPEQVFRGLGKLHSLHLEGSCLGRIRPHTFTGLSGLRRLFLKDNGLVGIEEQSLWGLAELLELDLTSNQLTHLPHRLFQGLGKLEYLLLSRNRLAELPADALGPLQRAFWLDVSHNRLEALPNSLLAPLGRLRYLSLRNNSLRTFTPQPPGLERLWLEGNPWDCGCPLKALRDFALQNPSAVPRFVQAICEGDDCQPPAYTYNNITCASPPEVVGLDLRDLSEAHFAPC

Sequence of acid-labile sub-unit (ALS) of insulin like growth factor binding protein complex (P35858 28-605, one chain of several): as above

Substance	percent of BP-53 activity shifted from 30-60K to 150K [1]	percent of ALS activity retained [2]	IC50 [3]	concentration for full displacement [3]
acid-labile sub-unit (ALS) of insulin like growth factor binding protein complex (from UniProt P35858 28-605)	> 50%	> 90%		
endogenous BP-53 of human serum (from UniProt P17936 28-291)			0.2 to 0.25 µg/mL	1 µg/mL
